Measurements as given in US20170306346.

Tests used:
His-AtUBC31 = target: T1, His-AtUBC31
T1 sequence (Q9C8X7 1-154, looked up): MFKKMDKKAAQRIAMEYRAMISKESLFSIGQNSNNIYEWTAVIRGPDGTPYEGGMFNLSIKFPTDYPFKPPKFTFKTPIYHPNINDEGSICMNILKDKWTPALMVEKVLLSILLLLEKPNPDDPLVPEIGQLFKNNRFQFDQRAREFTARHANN

His-AtUBC36, Q9FZ48 = target: T2, His-AtUBC36, Q9FZ48
T2 chain: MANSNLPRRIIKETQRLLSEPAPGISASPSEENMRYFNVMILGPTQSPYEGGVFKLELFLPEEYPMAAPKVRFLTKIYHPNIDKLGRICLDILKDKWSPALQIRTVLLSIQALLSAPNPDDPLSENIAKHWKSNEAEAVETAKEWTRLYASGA

His-AtUBC2, P42745 = target: T3, His-AtUBC2, P42745
T3 chain: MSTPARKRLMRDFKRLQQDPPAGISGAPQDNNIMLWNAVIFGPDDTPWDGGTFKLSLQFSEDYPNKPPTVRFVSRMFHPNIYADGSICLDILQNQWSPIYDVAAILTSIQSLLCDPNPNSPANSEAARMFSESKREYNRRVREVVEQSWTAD

Chain of GST-MYC2-HA, Q39204 (Q39204 whole entry): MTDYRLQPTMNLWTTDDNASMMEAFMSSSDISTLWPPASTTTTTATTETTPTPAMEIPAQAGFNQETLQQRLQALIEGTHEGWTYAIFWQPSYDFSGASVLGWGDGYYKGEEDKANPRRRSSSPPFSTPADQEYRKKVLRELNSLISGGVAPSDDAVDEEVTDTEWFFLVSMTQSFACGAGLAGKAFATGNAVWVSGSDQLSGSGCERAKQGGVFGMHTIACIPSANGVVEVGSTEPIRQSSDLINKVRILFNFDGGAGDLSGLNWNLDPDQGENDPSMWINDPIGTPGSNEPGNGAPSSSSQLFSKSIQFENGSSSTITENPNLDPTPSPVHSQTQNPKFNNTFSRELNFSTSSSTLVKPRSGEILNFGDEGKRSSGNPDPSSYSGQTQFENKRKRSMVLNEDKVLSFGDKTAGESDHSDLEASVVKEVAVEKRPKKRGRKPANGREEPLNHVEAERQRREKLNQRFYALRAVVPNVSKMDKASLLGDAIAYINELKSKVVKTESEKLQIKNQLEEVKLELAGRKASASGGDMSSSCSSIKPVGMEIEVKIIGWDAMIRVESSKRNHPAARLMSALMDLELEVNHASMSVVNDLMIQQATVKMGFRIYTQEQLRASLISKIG
Chain of His-AtUBC8, P35131 (P35131 whole entry): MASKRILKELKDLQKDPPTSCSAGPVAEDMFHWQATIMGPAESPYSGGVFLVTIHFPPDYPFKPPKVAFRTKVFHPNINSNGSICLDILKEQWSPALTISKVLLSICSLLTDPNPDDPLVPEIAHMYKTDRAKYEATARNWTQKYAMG
Chain of myc-MYC2, Q39204 (Q39204 whole entry): as the sequence (Q39204 whole entry) above

B1: MBP-PUB11-myc (protein)
chain: MAGGIVSPASLLDLIADIVEIPLNTGMFKKDCADLTRRVCLLTHLLEEIRDSTPIDSAASSSSENDWWSDLVVGLQAAKRLLSTARFQARDSSDGAAKRISFQFQCVTWKLEKALSNLPYDLYDISDEVGEQVELARSQLRRAMQRYGSLNSNKFSSALSEPMERDGFSNVIKIKAEEKLESVSETLHFGEEEEKQSSPPLRRSSSISLAYYLSKDADTDRLDKMVNKNTDESKKSDKLTIPVDFLCPVSLELMKDPVIVATGQTYERAYIQRWIDCGNLTCPKTQQKLENFTLTPNYVLRSLISRWCAEHNIEQPAGYINGRTKNSGDMSVIRALVQRLSSRSTEDRRNAVSEIRSLSKRSTDNRILIAEAGAIPVLVNLLTSEDVATQENAITCVLNLSIYENNKELIMFAGAVTSIVQVLRAGTMEARENAAATLFSLSLADENKIIIGGSGAIPALVDLLENGTPRGKKDAATALFNLCIYHGNKGRAVRAGIVTALVKMLSDSTRHRMVDEALTILSVLANNQDAKSAIVKANTLPALIGILQTDQTRNRENAAAILLSLCKRDTEKLITIGRLGAVVPLMDLSKNGTERGKRKAISLLELLRKACQ
- in vitro auto-ubiquitination of PUB11 with the UBC as E2 (His-AtUBC8, P35131): Each of these 4 UBCs was capable of supporting auto-ubiquitination of PUB10 and PUB11 in vitro although with varying degrees of activity ... The highest activity was obtained when UBC8 served as the ubiquitin conjugating enzyme
- in vitro auto-ubiquitination of PUB11 with the UBC as E2 (His-AtUBC31): Each of these 4 UBCs was capable of supporting auto-ubiquitination of PUB10 and PUB11 in vitro although with varying degrees of activity
- in vitro auto-ubiquitination of PUB11 with the UBC as E2 (His-AtUBC36, Q9FZ48): Each of these 4 UBCs was capable of supporting auto-ubiquitination of PUB10 and PUB11 in vitro although with varying degrees of activity
- in vitro ubiquitination of MYC2 (E1, E2, Ub; Western blot) (GST-MYC2-HA, Q39204): MYC2 is a substrate of PUB11 E3 ligase
- in vitro auto-ubiquitination of PUB11 with the UBC as E2 (His-AtUBC2, P42745): Each of these 4 UBCs was capable of supporting auto-ubiquitination of PUB10 and PUB11 in vitro although with varying degrees of activity

B2: HA-PUB10 (protein)
chain: MAGGAITPDSLIGLIAEINEIPGNFGLFKKDCSDLARRVGLLTHLIEEIRDSSPPSESDASSSLNSHECDWWSDLVVGLQAAKRLLSSATSFQARESSDGAAKRISFQFQCVTWKLEKALGDLTYDRYDISDEVREQVELARLQLRRAMQRYGSLNSKKFSSGLSEPMEKDASSNRKVIEKLESIPETVHSLSDEKKFESPPPWKSSSVSLAFFLSKDGDDERLEKAVTENSDDSQKSDNLTIPEDFLCPISLELMKDPAIVSTGQTYERSFIQRWIDCGNLSCPKTQQKLENFTLTPNYVLRSLISQWCTKHNIEQPGGYMNGRTKNSDGSFRDLSGDMSAIRALVCKLSSQSIEDRRTAVSEIRSLSKRSTDNRILIAEAGAIPVLVKLLTSDGDTETQENAVTCILNLSIYEHNKELIMLAGAVTSIVLVLRAGSMEARENAAATLFSLSLADENKIIIGASGAIMALVDLLQYGSVRGKKDAATALFNLCIYQGNKGRAVRAGIVKPLVKMLTDSSSERMADEALTILSVLASNQVAKTAILRANAIPPLIDCLQKDQPRNRENAAAILLCLCKRDTEKLISIGRLGAVVPLMELSRDGTERAKRKANSLLELLRKSSRKLGSL
- myc-MYC2 protein level in double transgenic Arabidopsis seedlings (Western blot) (myc-MYC2, Q39204): induced expression of HA-PUB10 clearly resulted in a decrease in myc-MYC2 level

B3: MBP-PUB10-6myc (protein)
chain: MAGGAITPDSLIGLIAEINEIPGNFGLFKKDCSDLARRVGLLTHLIEEIRDSSPPSESDASSSLNSHECDWWSDLVVGLQAAKRLLSSATSFQARESSDGAAKRISFQFQCVTWKLEKALGDLTYDRYDISDEVREQVELARLQLRRAMQRYGSLNSKKFSSGLSEPMEKDASSNRKVIEKLESIPETVHSLSDEKKFESPPPWKSSSVSLAFFLSKDGDDERLEKAVTENSDDSQKSDNLTIPEDFLCPISLELMKDPAIVSTGQTYERSFIQRWIDCGNLSCPKTQQKLENFTLTPNYVLRSLISQWCTKHNIEQPGGYMNGRTKNSDGSFRDLSGDMSAIRALVCKLSSQSIEDRRTAVSEIRSLSKRSTDNRILIAEAGAIPVLVKLLTSDGDTETQENAVTCILNLSIYEHNKELIMLAGAVTSIVLVLRAGSMEARENAAATLFSLSLADENKIIIGASGAIMALVDLLQYGSVRGKKDAATALFNLCIYQGNKGRAVRAGIVKPLVKMLTDSSSERMADEALTILSVLASNQVAKTAILRANAIPPLIDCLQKDQPRNRENAAAILLCLCKRDTEKLISIGRLGAVVPLMELSRDGTERAKRKANSLLELLRKSSRKLGSL
- in vitro auto-ubiquitination of PUB10 with the UBC as E2 (His-AtUBC8, P35131): Each of these 4 UBCs was capable of supporting auto-ubiquitination of PUB10 and PUB11 in vitro although with varying degrees of activity ... The highest activity was obtained when UBC8 served as the ubiquitin conjugating enzyme
- in vitro auto-ubiquitination of PUB10 with the UBC as E2 (His-AtUBC31): Each of these 4 UBCs was capable of supporting auto-ubiquitination of PUB10 and PUB11 in vitro although with varying degrees of activity
- in vitro auto-ubiquitination of PUB10 with the UBC as E2 (His-AtUBC36, Q9FZ48): Each of these 4 UBCs was capable of supporting auto-ubiquitination of PUB10 and PUB11 in vitro although with varying degrees of activity
- in vitro ubiquitination of MYC2 (E1, AtUBC8 as E2, His-ubiquitin; Western blot) (GST-MYC2-HA, Q39204): MYC2 was indeed poly-ubiquitinated by PUB10 in vitro
- in vitro auto-ubiquitination of PUB10 with the UBC as E2 (His-AtUBC2, P42745): Each of these 4 UBCs was capable of supporting auto-ubiquitination of PUB10 and PUB11 in vitro although with varying degrees of activity

B4: HA-PUB10 (C249A) (protein)
chain: MAGGAITPDSLIGLIAEINEIPGNFGLFKKDCSDLARRVGLLTHLIEEIRDSSPPSESDASSSLNSHECDWWSDLVVGLQAAKRLLSSATSFQARESSDGAAKRISFQFQCVTWKLEKALGDLTYDRYDISDEVREQVELARLQLRRAMQRYGSLNSKKFSSGLSEPMEKDASSNRKVIEKLESIPETVHSLSDEKKFESPPPWKSSSVSLAFFLSKDGDDERLEKAVTENSDDSQKSDNLTIPEDFLAPISLELMKDPAIVSTGQTYERSFIQRWIDCGNLSCPKTQQKLENFTLTPNYVLRSLISQWCTKHNIEQPGGYMNGRTKNSDGSFRDLSGDMSAIRALVCKLSSQSIEDRRTAVSEIRSLSKRSTDNRILIAEAGAIPVLVKLLTSDGDTETQENAVTCILNLSIYEHNKELIMLAGAVTSIVLVLRAGSMEARENAAATLFSLSLADENKIIIGASGAIMALVDLLQYGSVRGKKDAATALFNLCIYQGNKGRAVRAGIVKPLVKMLTDSSSERMADEALTILSVLASNQVAKTAILRANAIPPLIDCLQKDQPRNRENAAAILLCLCKRDTEKLISIGRLGAVVPLMELSRDGTERAKRKANSLLELLRKSSRKLGSL
- myc-MYC2 protein level in double transgenic Arabidopsis seedlings (Western blot) (myc-MYC2, Q39204): induced expression of PUB10 (C249A) mutant protein resulted in an increase of MYC2 level

B5: MBP-PUB10 (C249A)-6myc (protein)
chain: MAGGAITPDSLIGLIAEINEIPGNFGLFKKDCSDLARRVGLLTHLIEEIRDSSPPSESDASSSLNSHECDWWSDLVVGLQAAKRLLSSATSFQARESSDGAAKRISFQFQCVTWKLEKALGDLTYDRYDISDEVREQVELARLQLRRAMQRYGSLNSKKFSSGLSEPMEKDASSNRKVIEKLESIPETVHSLSDEKKFESPPPWKSSSVSLAFFLSKDGDDERLEKAVTENSDDSQKSDNLTIPEDFLAPISLELMKDPAIVSTGQTYERSFIQRWIDCGNLSCPKTQQKLENFTLTPNYVLRSLISQWCTKHNIEQPGGYMNGRTKNSDGSFRDLSGDMSAIRALVCKLSSQSIEDRRTAVSEIRSLSKRSTDNRILIAEAGAIPVLVKLLTSDGDTETQENAVTCILNLSIYEHNKELIMLAGAVTSIVLVLRAGSMEARENAAATLFSLSLADENKIIIGASGAIMALVDLLQYGSVRGKKDAATALFNLCIYQGNKGRAVRAGIVKPLVKMLTDSSSERMADEALTILSVLASNQVAKTAILRANAIPPLIDCLQKDQPRNRENAAAILLCLCKRDTEKLISIGRLGAVVPLMELSRDGTERAKRKANSLLELLRKSSRKLGSL
- in vitro ubiquitination of MYC2 (E1, AtUBC8 as E2, His-ubiquitin; Western blot) (GST-MYC2-HA, Q39204): The ubiquitination activity was greatly reduced when cysteine 249 was mutated to alanine 249
